Results reported in patent US20140271640A1, “FGF-10 Complexes” (Permeon Biologics, Inc., priority 2012, published 2014).
Where a chain is given by its changes, count along the chain named. Numbers in names are those of the source.

Columns and labels:
FGFR2b receptor = FGFR2b receptor (Homo sapiens, UniProt P21802); details: relative to wild-type FGF10; cited from earlier work
Hela cells = test: Cell penetrating activity of FGF10 domain, anti-myc flow cytometry; type: cell-based; details: 1 uM, 20 minutes
Method: On the day prior to the assay, 10^6 Hela cells were plated in each well of a 6-well plate and incubated in the 37° C. CO2 incubator overnight. The cells were washed once with PBS and then were replenished with 1 mL of serum-free DEMEM (A) or media containing 1 uM of the FGF10 domain construct FGF10-myc (B, C, and D) and were incubated for 20 minutes in the 37° C. CO2 incubator. The cells were then washed three times with ice-cold PBS. For (C) and (D), cells were treated with 0.25% trypsin/EDTA and washed three times with PBS. The cells in (D) were fixed for 10 minutes with 1 mL 4% formaldehyde and permealized for 5 minutes with 0.2% saponin. Then 10 uL of 0.1 mg/mL FITC labeled chicken polyclonal anti-myc tag antibody (Abcam #1394) was added to all the cells and incubated at 4° C. in the dark for 2 hours. The cells were washed three times with ice cold PBS. Cells in (A) and (B) were detached with 1 mL 10 mM EDTA. Cells were analyzed using a BD Accuri™ C6 flow cytometer.

[1] = Stability of Hisx6-FGF10-Myc following freeze/thaw cycles (A280, analytical SEC); type: physicochemical; details: after two (multiple) freeze/thaw cycles
Method: The stability of this cell penetrating domain of FGF10 was evaluated following multiple freeze/thaw cycles. To do this, protein concentration measurements and analytical size exclusion chromatography were carried out comparing protein which had undergone zero, one, or two freeze/thaw cycles. […] The study indicated about 75% stability of this protein after two freeze/thaw cycles.
Purified protein was subjected to the indicated number of freeze/thaw cycles (each freeze/thaw cycle consisted of snap-freezing the protein in liquid nitrogen, placing it at −80° C. for a minimum of two hours, and then thawing it on ice) and analyzed by size exclusion chromatography. After each thaw, the protein was subjected to 20,000×g centrifugation to remove any precipitation. The protein concentration of each sample was measured by A280, considering the extinction coefficient (24540) and molecular weight (19.57 kDa). In each case 40 μL of the protein was applied to a Superdex 75 10/300 GL column (GE Healthcare). The column running buffer was the same as the protein storage buffer (20 mM Hepes, pH 7.5, 0.5 M NaCl).

[2] = mouse, in vivo, iv
[3] = mouse, in vivo
[4] = Microautoradiography analysis (MARG) of cellular distribution in liver and kidney; type: in vivo, mice
Method: To obtain specific cell-type uptake information in select organs, microautoradiography analysis was performed on selected organs collected at various time points. For microautoradiography analysis (MARG), animals were anesthetized and blood collected, as described above. Tissue samples are trimmed to be approximately 0.5 cm^2, placed into cryosectioning embedding media on a cryosectioning sample holder, and frozen in isopentane that is cooled with liquid nitrogen. Frozen samples were stored in liquid nitrogen until analysis by MARG. For analysis, tissues were cryosectioned at 5 μm under darkroom conditions, and collected onto glass slides that are pre-coated with photographic emulsion (Kodak NTB photographic emulsion). Slides were placed in sealed light-safe slide boxes and allowed to expose the photographic emulsion for 7 days before being developed, fixed and stained with hematoxylin and eosin. All slides were examined for cellular localization using light microscopy.

FGFR-1b = FGFR-1b (Homo sapiens, UniProt P11362); details: cited from earlier work
[5] = tested on: SKOV-3 ovarian cancer cells; test: SKOV-3 cell viability MTS assay with endosome escape agent; type: cell-based, human; details: 1 uM protein, 4 hours, with endosome escape agent (strongest at 13.3 nM)
Method: SKOV-3 ovarian cancer cells were plated in a 96-well format and grown overnight. Cells were incubated with test articles: a) 1 uM of p16, b) 1 uM of +36GFP-p16, c) 1 uM of FGF10-p16 or d) no treatment in the presence of various concentrations of an endosome escape agent such as PFO (five 3× dilution starting from 40 nM; exemplary endosomal escape agents, such as PFO or PFO-like agents, are disclosed in WO2012/094653) for 4 hours in serum-free medium. One group of cells, called “untreated cells” received no test article treatment and no PFO treatment. After incubation, the media from all cell wells was aspirated and fresh complete medium was added for 3 hours. Cell viability was assessed using an MTS assay. Results are reported as number of viable cells as % relative to the untreated cells.
The CDK4/6 inhibitor PD-0332991 was used as positive control for inhibition of cell proliferation in the p16 deficient SKOV-3 cell line (FIG. 22).

[6] = tested on: HepG2 (hepatoma), Hela cells, SW626 cells (ovarian); test: Cell penetration of p16 fusion proteins, flow cytometry; type: cell-based; details: 2 uM, overnight
Method: On the day prior to the assay, HepG2 (hepatoma), Hela cells, and 10^6 SW626 cells (ovarian) were plated in each well of a 6-well plate and incubated in the 37° C. CO2 incubator. The cells were washed once with PBS and then were replenished with 2 mL of growth media containing 2 uM of p16, +36GFP-p16 or FGF10-p16 proteins and were incubated overnight in the 37° C. CO2 incubator. The cells were then washed once with PBS and detached with 0.25% trypsin/EDTA. The cells were fixed for 10 minutes with 1 mL 4% formaldehyde and permeabilized for 5 minutes with 0.5 mL 0.4% saponin. Then 2.5 uL of 1 mg/mL FITC labeled chicken polyclonal anti-myc tag antibody (Abcam #1394) was added to all the cells and incubated at 4° C. in the dark for 2 hours, except for cells treated with +36GFP-p16 (GFP itself was used for detection). The cells were washed twice with ice cold PBS and were analyzed using a BD Accuri™ C6 flow cytometer.

Chain of FGFR2b receptor (P21802 22-822 isoform P21802-3 limits assumed): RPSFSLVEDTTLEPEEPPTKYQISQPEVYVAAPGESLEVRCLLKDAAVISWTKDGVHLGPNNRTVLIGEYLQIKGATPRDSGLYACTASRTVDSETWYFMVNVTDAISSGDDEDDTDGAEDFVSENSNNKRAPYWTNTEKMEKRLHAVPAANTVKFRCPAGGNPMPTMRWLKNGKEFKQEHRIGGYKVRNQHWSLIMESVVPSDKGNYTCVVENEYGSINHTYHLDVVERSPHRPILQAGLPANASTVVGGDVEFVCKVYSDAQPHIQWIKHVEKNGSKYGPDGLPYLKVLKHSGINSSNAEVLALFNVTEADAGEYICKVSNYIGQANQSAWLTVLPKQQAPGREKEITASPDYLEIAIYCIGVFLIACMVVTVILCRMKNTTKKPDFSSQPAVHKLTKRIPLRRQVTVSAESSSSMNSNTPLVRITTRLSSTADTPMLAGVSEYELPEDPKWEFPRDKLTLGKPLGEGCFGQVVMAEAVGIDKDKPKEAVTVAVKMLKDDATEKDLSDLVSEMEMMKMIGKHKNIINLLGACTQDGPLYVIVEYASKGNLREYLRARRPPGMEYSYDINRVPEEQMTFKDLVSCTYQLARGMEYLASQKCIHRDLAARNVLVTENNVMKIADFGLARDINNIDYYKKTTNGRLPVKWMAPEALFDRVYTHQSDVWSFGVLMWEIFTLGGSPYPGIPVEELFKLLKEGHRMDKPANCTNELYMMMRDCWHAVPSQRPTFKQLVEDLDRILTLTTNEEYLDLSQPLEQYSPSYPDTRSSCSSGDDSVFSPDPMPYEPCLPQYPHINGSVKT
Chain of FGFR-1b (P11362 22-822 isoform P11362-19 limits assumed): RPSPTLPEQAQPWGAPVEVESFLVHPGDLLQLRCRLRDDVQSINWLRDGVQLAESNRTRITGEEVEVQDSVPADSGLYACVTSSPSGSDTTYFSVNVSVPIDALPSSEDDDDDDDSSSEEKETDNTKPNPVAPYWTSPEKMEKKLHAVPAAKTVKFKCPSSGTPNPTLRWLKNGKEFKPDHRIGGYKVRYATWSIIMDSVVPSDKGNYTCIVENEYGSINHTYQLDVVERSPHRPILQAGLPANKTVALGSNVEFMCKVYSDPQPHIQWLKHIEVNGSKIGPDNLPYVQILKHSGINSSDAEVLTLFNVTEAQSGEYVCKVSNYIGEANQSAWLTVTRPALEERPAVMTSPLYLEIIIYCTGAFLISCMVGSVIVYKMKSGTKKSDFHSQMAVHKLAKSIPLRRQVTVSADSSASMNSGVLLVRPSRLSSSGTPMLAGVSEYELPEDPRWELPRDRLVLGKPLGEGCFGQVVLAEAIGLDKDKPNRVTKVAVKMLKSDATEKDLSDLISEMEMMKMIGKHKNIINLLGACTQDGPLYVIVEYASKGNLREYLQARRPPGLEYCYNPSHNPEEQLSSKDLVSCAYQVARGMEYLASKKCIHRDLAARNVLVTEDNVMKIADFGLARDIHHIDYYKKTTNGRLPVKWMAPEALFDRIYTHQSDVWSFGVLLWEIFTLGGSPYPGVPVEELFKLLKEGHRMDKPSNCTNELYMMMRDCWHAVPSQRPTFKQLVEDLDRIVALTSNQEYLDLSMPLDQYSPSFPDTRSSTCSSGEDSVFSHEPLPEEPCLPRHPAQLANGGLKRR

B1: FGF10 E158K/K195A: FGF-10 variant or fragment having two substitutions E158K/K195A (protein)
chain: GRHVRSYNHLQGDVRWRKLFSFTKYFLKIEKNGKVSGTKKENCPYSILEITSVEIGVVAVKAINSNYYLAMNKKGKLYGSKEFNNDCKLKERIEKNGYNTYASFNWQHNGRQMYVALNGKGAPRRGQKTRRANTSAHFLPMVVHS
For B1, the “decrease in binding to the FGFR2b receptor (factor / fold)” value (FGFR2b receptor) is listed as “approximately 4”.

B2: FGF10 R78A: FGF-10 variant or fragment having one substitution R78A (protein)
chain: B1 chain with R15A, K95E, A132K
In the case of B2, the “decrease in binding to the FGFR2b receptor (factor / fold)” value (FGFR2b receptor) is listed as “approximately 4”.

B3: FGF10: Hisx6- and Myc-tagged domain of human FGF10 with the amino acid sequence of SEQ ID NO: 2 (protein, listed as Homo sapiens)
chain: B1 chain with K95E, A132K
modifications: His6 and Myc tags
For B3, the “cells with protein present on the cell membrane” value (Hela cells; no trypsin) was 98.8%, the “cells stained positive after trypsin treatment (internalized protein)” value (Hela cells; trypsin, fixed and permeabilized) was “almost all the cells stained positive” and the “stability after freeze/thaw cycles” value ([1]; listed as His6-FGF10-myc) was 75%. For the same molecule, the “stability after freeze/thaw cycles” value ([1]; listed as Hisx6-FGF10-Myc) was “about 75%”, the “travel beyond the injection site” value [2] was “able to travel significantly beyond the area of the injection site” and the “partitioning between plasma compartment and blood cell compartment” value [3] was “favor the plasma compartment over the blood cell compartment”. The “plasma concentration compared with Tat-TK or +36GFP” value [3] was “higher concentrations in plasma 1 hour post-injection than Tat-TK or +36GFP”, the “cellular distribution in kidney (MARG)” value ([4]; kidney) was “uniformly distributed throughout the kidney” and the “cellular distribution in liver (MARG)” value ([4]; liver) was “uniformly distributed throughout the liver tissue including in hepatocytes”.

B4: Fibroblast growth factor 10 (FGF-10): native FGF family member, ligand of FGFR-2b (protein, UniProt O15520 38-208, looked up)
Fibroblast growth factor 10: QALGQDMVSPEATNSSSSSFSSPSSAGRHVRSYNHLQGDVRWRKLFSFTKYFLKIEKNGKVSGTKKENCPYSILEITSVEIGVVAVKAINSNYYLAMNKKGKLYGSKEFNNDCKLKERIEENGYNTYASFNWQHNGRQMYVALNGKGAPRRGQKTRRKNTSAHFLPMVVHS
For B4, the “binding affinity to FGFR-1b as % of binding affinity to FGFR-2b” value (FGFR-1b) is listed as “about 10%”.

B5: FGF10-p16: fusion protein of FGF10 domain (SEQ ID NO: 2), (G4S)2 linker and human p16 (protein)
chain: MEQKLISEEDLGSGRHVRSYNHLQGDVRWRKLFSFTKYFLKIEKNGKVSGTKKENCPYSILEITSVEIGVVAVKAINSNYYLAMNKKGKLYGSKEFNNDCKLKERIEENGYNTYASFNWQHNGRQMYVALNGKGAPRRGQKTRRKNTSAHFLPMVVHSGHGGGGSGGGGSMEPAAGSSMEPSADWLATAAARGRVEEVRALLEAGALPNAPNSYGRRPIQVMMMGSARVAELLLLHGAEPNCADPATLTRPVHDAAREGFLDTLVVLHRAGARLDVRDAWGRLPVDLAEELGHRDVARYLRAAAGGTRGSNHARIDAAEGPSDIPDGHGHHHHHH
For B5, the “number of viable cells / cell proliferation” value [5] was “significant reduction in the number of viable cells” and the “treated cells stained positive” value ([6]; trypsin detached) was ~30%.

B6: p16: human p16Ink4A tumor suppressor protein without penetrating polypeptide (protein, listed as Homo sapiens)
chain: MEPAAGSSMEPSADWLATAAARGRVEEVRALLEAGALPNAPNSYGRRPIQVMMMGSARVAELLLLHGAEPNCADPATLTRPVHDAAREGFLDTLVVLHRAGARLDVRDAWGRLPVDLAEELGHRDVARYLRAAAGGTRGSNHARIDAAEGPSDIPD
For B6, the “number of viable cells / cell proliferation” value [5] was “failed to block cell proliferation at levels higher than the background toxicity of an endosomal escape agent” and the cell penetration [6] was “does not”.
